The target of the experiment is hKGF receptor on the surface of PC-3 prostatic carcinoma cells (UniProt P21802). Nature of the experiment: saturation binding of 125I-hKGF on PC-3 cells, Scatchard analysis.

B1: Recombinant human Keratinocyte Growth Factor (hKGF) (ligand, UniProt P21781 32-194, looked up)
chain: CNDMTPEQMATNVNCSSPERHTRSYDYMEGGDIRVRRLFCRTQWYLRIDKRGKVKGTQEMKNNYNIMEIRTVAVGIVAIKGVESEFYLAMNKEGKLYAKKECNEDCNFKELILENHYNTYASAKWTHNGGEMFVALNQKGIPVRGKKTKKEQKTAHFLPMAIT
Molecule B1 returned a specific hKGF binding sites per cell (sites per cell) of 5000.

(Values after US20060229273A1.)
